{
  "source": "patent US12186373B2",
  "about": "“Compositions in the form of an injectable aqueous solution comprising amylin, an amylin agonist receptor or an amylin analogue and a co-polyamino acid” (ADOCIA, priority 2017, dated 2025)",
  "origin": "cited, not measured here",
  "conditions": "acidic pH",
  "data": [
    {"substance": "amylin: peptide of 37 amino acids which is stored and co-secreted with insulin (KCNTATCATQRLANFLVHSSNNFGAILSSTNVGSNTY; Islet amyloid polypeptide; UniProt P10997 34-70, looked up)", "values": [
      {"measurement": "time for which amylin is stable", "value": "about fifteen minutes"}
    ]}
  ]
}
